One series has as its system T47D. Put plainly: Cytotoxicity on cell lines (HerDox dose curves). Format: cell-based, human. Particulars: concentration yielding 50% reduction in cell survival, mean ± SD.
In another series the test system is BT474 parental cells. Put plainly: Tumor cell killing in culture. It counts as cell-based, human. On the procedure:
(§1) FIG. 21 depicts graph that show the results of the administration of HerDox on various cells. […] N=3. *=p<0.05 compared to parental. […] N=3.
(§2) N=3. *, p<0.05 compared to parental. […] N=3. […] Parental and resistant cell lines were treated with HerDox−/+HER3 blocking peptide (ErbB3 human; Prospec), and tested for cell survival 48 hours later. […] Treatments were compared to mock (saline)-treatment. […] N=3. *, p<0.05 compared to parental. […] N=3.
(§3) Parental cell lines were pre-treated with 0.5 mg/mL Tz for 24 hours before testing these cells for surface HER3 levels. […] Parental cell lines were pre-treated with 0.5 mg/mL Tz for 24 hours before testing these cells for HerPBK10 binding. […] SKBR3 Parental cells were treated with Tz at indicated concentrations (see upper X-axes) 4 and 24 hours before HerDox treatment and assayed for survival at 48-72 h after treatment. N=3. […] SK-474 Parental cells were treated with Tz at indicated concentrations (see upper X-axes) 4 and 24 hours before HerDox treatment and assayed for survival at 48-72 h after treatment. N=3. […] MDA-MB-435 non-resistant cells were treated with Tz at indicated concentrations (see upper X-axes) 4 and 24 hours before HerDox treatment and assayed for survival at 48-72 h after treatment. […] N=3. […] Tz-resistant cells were treated with Tz at indicated concentrations (see upper X-axes) 4 and 24 hours before HerDox treatment and assayed for survival at 48-72 h after treatment. N=3.
(§4) N=3. *, p<0.05 compared to parental. […] N=3. […] N=3. […] Tumor volumes were measured by calipers. […] Tumor volumes were measured by calipers. […]

Series [1] can be described thus: Off-target toxicity in treated mice (weight, heart, liver). On the procedure: Relative cell survival (as % of untreated cells) on day 3 of treatment. (+Her), pre-incubation of MDA-MB-435 cells with receptor-blocking ligand (recombinant heregulin) before receiving HerDox. N=3. […] Tissues were harvested from independently injected mice euthanized at indicated time points after injection and fluorescence intensity/tissue acquired using a multimode imager. […] Bar, about 4 μm. […] Day 0=3 days before tail vein injections (mice received daily injections for 7 days). […] Day 0=3 days before tail vein injections (mice received daily injections for 7 days). […] Micrographs (20× magnification) in (E) also show representative H&E stained specimens of myocardia and immunofluorescent specimens of livers from treated mice. Green fluorescence in nuclei indicates apoptosis (positive TUNEL stain).

Series [2] relates to BT474 trastuzumab-resistant cells. Briefly: Tumor cell killing in culture. On the procedure: as §1, §2, §3, §4
Series [3] concerns parental and resistant cell lines (JIMT-1, BT-474, SKBR3). Put plainly: HerDox −/+ HER3 blocking peptide, cell survival. Particulars: equimolar HER3:HerPBK10, 48 hours. Format: cell-based, human. Here is the method:
(A)_-illustrates that resistance enhances HerDox toxicity. […] N=3. *, p<0.05 compared to parental. (B)_illustrates that resistance enhances HerDox toxicity. […] N=3. (C) illustrates contribution of HER3 to targeted toxicity. […] Treatments were compared to mock (saline)-treatment. […] N=3. *, p<0.05 compared to parental. […] N=3.
The contribution of HER3 to targeted toxicity was evaluated by assessing whether pre-adsorbing HerDox with a peptide comprising the ligand-binding domain of HER3 blocked cytotoxicity. […] In contrast, HerDox yielded dose-dependent cell death and eliminated up to 90% of the cells (FIG. 27-E).

Series [4] deals with GFP(+) MDA-MB-231 (HER2−). Put plainly: Targeting in a mixed cell culture. It counts as cell-based, human. Particulars: 0.5 μM Dox, day 2. Here is the method:
(§5) FIG. 9 (A) illustrates targeting in a mixed cell culture.
(§6) FIG. 9 (B) further illustrates targeting in a mixed cell culture. Cell survival was determined by calculating the relative doubling time (DT) of experimental (exp) cells normalized by control (con) cells based on the crystal violet stains (total cells) and GFP fluorescence (MDA-MB-231 cells). The DT of MDA-MB-435 was determined by subtracting the DT of MDA-MB-231 from the total cell DT. Relative survival is shown for Day 2 of treatment.
(§7) By three days, HerDox reduced HER2+ cell numbers by over 75% whereas HER2− cell survival was unaffected (FIG. 7). […] These findings emphasize the importance of targeting by showing that the untargeted drug affects nontarget (i.e. HER2−) cells. […] To test receptor targeting, the inventors used free heregulin ligand (Her or eHRG) as a competitive inhibitor. […] As a final in vitro challenge, the inventors tested whether HerDox induces toxicity specifically to HER2+ cells in a mixed culture of HER2+ and HER2− breast cancer cells. To do this, the inventors produced a HER2− cell line tagged with green fluorescent protein (GFP) for cell identification in the mixed culture (FIG. 9-A). […] Altogether, these findings indicate that HerDox has the capacity to preferentially target toxicity to HER2+ cells. […] In serum-containing media, no such loss from HerDox is detectable. […]

Series [5] relates to MDA-MB-435 (non-GFP, HER2+). Put plainly: Targeting in a mixed cell culture. Format: cell-based, human. Particulars: 0.5 μM Dox, day 2. On the procedure: as §5, §6, §7

“Also recorded” adds a separate entry of the source.

B1: HerDox: non-covalent complex of HerPBK10, double-stranded oligonucleotide and intercalated Dox (Unit A+Unit B+Unit C) (conjugate)
chain: SHLVKCAEKEKTFCVNGGECFMVKDLSNPSRYLCKCQPGFTGARCTENVPMKVQNQEKAEELYQKMRRAAMYEEGPPPSYESVVSAAPVAAALGSPFDAPLDPPFVPPRYLRPTGGRNSIRYSELAPLFDTTRVYLVDNKSTDVASLNYQNDHSNFLTTVIQNNDYSPGEASTQTINLDDRSHWGGDLKTILHTNMPNVNEFMFTNKFKARVMVSRLPTKDNQVELKYEWVEFTLPEGNYSETMTIDLMNNAIVEHYLKVGRQNGVLESDIGVKFDTRNFRLGFDPVTGLVMPGVYTNEAFHPDIILLPGCGVDFTHSRLSNLLGIRKRQPFQEGFRITYDDLEGGNIPALLDVDAYQASLKDDTEQGGGGAGGSNSSGSGAEENSNAAAAAMQPVEDMNDHAIRGDTFATRAEEKRAEAEAAAEAAAPAAQPEVEKPQKKPVIKPLTEDSKKRSYNLISNDSTFTQYRSWYLAYNYGDPQTGIRSWTLLCTPDVTCGSEQVYWSLPDMMQDPVTFRSTRQISNFPVVGAELLPVHSKSFYNDQAVYSQLIRQFTSLTHVFNRFPENQILARPPAPTITTVSENVPALTDHGTLPLRNSIGGVQRVTITDARRRTCPYVYKALGIVSPRVLSSRTFKKKKKKKKKK
modifications: left off: small tags and cut ends
Take B1: in the series on T47D, the EC50 – broadly, the midpoint of the concentration-response curve – came to 0.64 ± 0.04 µM. The “cell death on parental BT474 (comparative)” value in the series with BT474 parental cells (48-72 h after treatment) is “higher cell death compared to Tz and Tz+Pz; also recorded: modestly improved over trastuzumab; also recorded: modestly improved over Tz”. The “enhancement of HerDox toxicity by trastuzumab pre-treatment” value with BT474 parental cells (parental BT474, 4 h pre-treatment) came to 50%. In the series on BT474 parental cells (parental BT474, 24 h pre-treatment), the “enhancement of HerDox toxicity by trastuzumab pre-treatment” value is recorded as ~75%. In addition, the “cardiac function (echocardiograms)” value in series [1] (25 days following injections) was “no effect on these measurements”. For the same molecule, in series [1] (systemic delivery in vivo), the “liver and heart toxicity” value is “avoiding liver and heart toxicity”. In addition, in series [2] (48-72 h after treatment), the “effect on BT474 resistant cells” value is reported as “completely killed off; also recorded: complete cell death at all HerDox concentrations tested; also recorded: effectively eliminated”. Further, in series [2] (Tz-resistant BT474), the “cytotoxicity at five-fold lower HerDox concentrations with trastuzumab pre-treatment” value is recorded as “further enhanced cytotoxicity” and the “effect on cell survival at five-fold lower HerDox concentrations” value is given as “still had a potent effect on cell survival”. Also, the “cell death after pre-adsorbing with HER3 peptide” value in series [3] is on record as “inhibited by the HER3 peptide”. In series [4], the “GFP (HER2−) cell growth in mixed culture” value is given as “not altered”. Further, the “non-GFP (HER2+) cell proliferation in mixed culture” value in series [5] is on record as “nearly completely reduced”.
